We go through 167 variants from the RNAGym collection of RNA variant scans (doi:10.7554/elife.80360).

B1: HDV Ribozyme (parent)
chain: GGCCGGCAUGGUCCCAGCCUCCUCGCUGGCGCCGGCUGGGCAACAUUCCGAGGGGACCGUCCCCUCGGUAAUGGCGAAUGGGACCCA

The variants in the series derive from B1. Briefly: self-cleavage, relative activity (ratio to wild type); higher = more cleavage; co-transcriptional.
With C33A A42U, the self-cleavage was 0.0314.

On to G29A C63A, for which the self-cleavage came out at 0.147.

In the case of A8G G81U, the self-cleavage is 0.256. As for G2C U47G, the figure is 0.0923; as for C13U C33A, 0.0923.

As to C30A A56C, the self-cleavage stood at 0.875.

As to G74U A78C, the self-cleavage is 0.201. Regarding G1C C44A, the self-cleavage is 0.353. In the case of U20C G74C, the self-cleavage turned out to be 0.107. With A51C G53C, the self-cleavage came out at 0.196.

Take C49U C84A: the self-cleavage was found to be 0.786.

As to C32A C64G, the self-cleavage was 0.131. As to U12G G73A, the self-cleavage is 0.323. As for C32G C58G, the figure is 0.0773; as for U12A C32U, 0.0723. The result for G1A C21G reads 0.0489; that for G29U C49A, 0.111. With C19A G73A, the self-cleavage came out at 0.0519. Take G25U U27A: the self-cleavage came to 0.135. As for G53C G59A, the self-cleavage amounted to 0.95. The result for A78U C84U reads 0.252; that for G25U U60C, 0.0475; that for G17A C33U, 0.566. As for G52A C86A, the figure is 0.9. As for C18U G68U, the self-cleavage amounted to 0.635. The result for C33A A45G reads 0.0536; that for C33A G82U, 0.0332; that for C21A A78G, 0.189. For the variant G5A U69G, the self-cleavage is 0.353. Take G68C G76A: the self-cleavage is 1.04. As for C24U G74U, the figure is 0.143; as for G34C C58A, 0.161; as for G6U G82A, 0.0875. Turning to U20C G59A, the self-cleavage turned out to be 0.208. In the case of U79A G82C, the self-cleavage worked out at 0.0504. The result for G29C U65A reads 0.095; that for C61A U69C, 0.906; that for G67A G74A, 0.403. Regarding G39C G40U, the self-cleavage is 0.487. As to G6U C21G, the self-cleavage was found to be 0.0361. G40A G54A: the self-cleavage was 1.04. The result for G39C U47A reads 0.243; that for G2U A56G, 0.0674; that for C15A G68C, 0.458. As to G17A C41A, the self-cleavage is 0.47. As for C63G C75U, the figure is 0.154; as for C19A A87U, 0.223; as for G1A U72A, 0.246.

Regarding C3A A51C, the self-cleavage came to 0.374. As for G1U A87U, the figure is 0.507; as for C3A U65C, 0.602.

As to A16C C58G, the self-cleavage was 0.532.

In the case of G2C U60G, the self-cleavage stood at 0.0326. The result for G76U U79A reads 0.984; that for G1A G74A, 0.0287. The result for A51G G68C reads 0.831. Regarding G59C, the self-cleavage stood at 1.01. As to C18G C85U, the self-cleavage came out at 0.095. As for G10C C63A, the figure is 0.88. As to G50A C63U, the self-cleavage turned out to be 1.13.

Consider C13U C36G, for which the self-cleavage stood at 0.0723.

Regarding G25U A77U, the self-cleavage was determined as 0.0923. The result for G1C U20G reads 0; that for C24A G31C, 0.0583; that for G2A G50A, 0.0386. As for G74A C84G, the figure is 0.168; as for C15G A42C, 0.0755; as for C19A G82A, 0.113. As for U23A C58A, the figure is 1.12; as for U23A U72G, 0.302. Turning to G1U U79G, the self-cleavage is 0.539. The result for G52C G54U reads 0.513; that for G11A G53A, 0.437; that for C15A U27C, 0.277. The result for U9G C58A reads 1.42; that for C62G C64G, 0.427. As for A71G G76C, the figure is 0.73. In the case of C14G U47A, the self-cleavage turned out to be 0. In the case of A16C G68C, the self-cleavage was determined as 0.748. The result for C48U U72C reads 0.554. As for C33G G50C, the figure is 0.246; as for U69A G81A, 0.425.

Take G17A G25A: the self-cleavage was determined as 0.117. C3A G80A: the self-cleavage worked out at 0.175.

As to C13G A87U, the self-cleavage came out at 0.0911. As for G40C A56G, the figure is 0.237; as for G55A U72C, 1. As for G5A C49G, the figure is 0.237. G80A G81A: the self-cleavage stood at 0.185. As for C26G G73U, the figure is 0.291; as for U9G G59C, 1.06.

As to C36U U79C, the self-cleavage amounted to 0.201.

As for C64G C85A, the self-cleavage is 0.956. G11C G55A: the self-cleavage came to 0.407.

For G81A C85U, the self-cleavage came out at 0.163. As to G39A U46C, the self-cleavage came to 0.181. Turning to C14A C66U, the self-cleavage was 1.03. The result for U23A G80C reads 0.101; that for U47A U72A, 0.748; that for G40A C61A, 0.839. As for G31A A42C, the figure is 0.102; as for C4G G76U, 0.469; as for U23A C75G, 0.116. Turning to G38A C63G, the self-cleavage came out at 0.0811.

Take U46G U65C: the self-cleavage is 0.615.

On to C49A U69C, for which the self-cleavage is 1.13. As for U12G G68A, the self-cleavage was determined as 0.529. As for G40U A70C, the figure is 0.391; as for C3A C75A, 0.0784. For U46A U47A, the self-cleavage came to 0.867. As for A71G C75U, the figure is 0.151; as for C3U C15A, 0.481. With C62A A70G, the self-cleavage came out at 0.682. As for C15U A56G, the figure is 1.35. For C61G G80U, the self-cleavage was 0.275. The result for G31U A71C reads 0.0369.

As to G6C C44A, the self-cleavage worked out at 0.208.

Consider G80A A87G, for which the self-cleavage is 0.424. Turning to G59A C85U, the self-cleavage was found to be 0.796.

C19A G31U: the self-cleavage is 0.192. The result for C13U U23G reads 0.287. As for C57U A83U, the figure is 0.475; as for C48G C58U, 0.617; as for C41A A71C, 0.499. Turning to A8U C84U, the self-cleavage was 0.506. Take G28U U69G: the self-cleavage was determined as 0.208. The result for U69A G82C reads 0.554. As for C22U G34U, the figure is 0.145; as for G1A A8U, 0; as for C14A G73C, 0.104. As for G25A U65C, the figure is 0.208; as for U9C A87U, 1.06; as for C13U A56C, 0.677. As to U12C A78G, the self-cleavage is 0.192. The result for C30U C32U reads 0.7; that for C26A C49G, 0.867. As for G53C C64G, the figure is 0.268. C48U A87U: the self-cleavage worked out at 0.942. As for A70U C85U, the figure is 0.746; as for U20G C49A, 0.308; as for U46A C61U, 0.61. The result for C44U U47A reads 0.743; that for C21U C22U, 0.0702; that for G29C A78C, 0.0519. The result for G29C A83G reads 0.0863; that for G34C C49A, 0.249. Regarding G5A G76A, the self-cleavage is 0.229.

With C3A U79C, the self-cleavage turned out to be 0.106. As for C19U C22U, the figure is 0.058. As to C15G A87C, the self-cleavage was 0.799.

On to A56C C61U, for which the self-cleavage came to 0.942. In the case of C18G G31U, the self-cleavage is 0.0396.

As for C24A A51C, the self-cleavage turned out to be 0.516. As for U60A C86U, the figure is 0.831; as for U20G U37C, 0.237. Regarding G67U A83G, the self-cleavage is 0.412. The result for A8G C18U reads 0.297; that for C15A G80U, 0.899. As for C18U G34A, the self-cleavage came out at 0.117.

For the variant G81C C86G, the self-cleavage was 0.138. As for C18U G29C, the figure is 0.196; as for G38U A83G, 0.0866.

For A8G A70C, the self-cleavage was determined as 0.519.

As to A56G G76C, the self-cleavage is 1.16. The result for G38A A45G reads 0.155; that for C21A U27A, 0.0504; that for G11U A77C, 0.0652.
